EC50 data for two molecules are collected here from US20220056147A1.

Experiment [1] addresses human MSLN on Oval-Citar-3-MSLN cells (human) (UniProt Q13421). Briefly: cell ELISA on fixed Oval-Citar-3-MSLN cells, HRP anti-human IgG Fc detection. A general note: An ELISA detects its analyte on a solid surface through an enzyme-linked reagent.
Experiment [2] has the same target. As to the kind of experiment: flow cytometry on fixed Oval-Citar-3-MSLN cells, FITC anti-human IgG Fc detection.

Sequence of human MSLN on Oval-Citar-3-MSLN cells (human) (Q13421 other isoform, or with tags, fused parts or gaps limits assumed): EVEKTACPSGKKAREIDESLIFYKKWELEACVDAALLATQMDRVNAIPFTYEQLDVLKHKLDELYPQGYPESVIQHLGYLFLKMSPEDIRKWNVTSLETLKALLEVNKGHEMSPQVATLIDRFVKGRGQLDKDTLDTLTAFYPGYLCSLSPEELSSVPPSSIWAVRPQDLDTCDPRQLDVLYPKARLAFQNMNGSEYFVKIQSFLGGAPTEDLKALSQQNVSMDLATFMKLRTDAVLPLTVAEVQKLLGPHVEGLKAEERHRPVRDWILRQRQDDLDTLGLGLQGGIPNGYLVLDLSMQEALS

B1: RC88 antibody (antibody, human IgG1, kappa, V domains shown)
VH: EVQLVESGGGLVQPGGSLRLSCAASGFDFSRYWMSWVRQAPGKGLEWIGEINPDSSTIVYTPSLKDKFIISRDNAKNTLYLQMNSLRAEDTALYYCARRGSHYYGYRTGYFDVWGAGTTVTVSS
VL: DVVMTQSPAFLSVTPGEKVTMTCSASSSVSYMYWHQQKPDQAPKLLIYDTSNLASGVPVRFSGSGSGTDFTFTISRMEAEDAATYYCQQWSSYPPTFGGGTKVEIKR
Broadly, the EC50 is the concentration giving half of the maximal effect. The low end stands for an effect from little substance, the high end for a need for much substance. Regarding B1, the concentration giving a half-maximal response (EC50) in experiment [1] worked out at 0.011 mg/L; in experiment [2], 0.153 mg/L.

B2: RC88-Py-MAA-Val-Cit-PAB-MMAE (antibody, human IgG1, kappa, V domains shown)
VH: B1 VH
VL: B1 VL
modifications: Py-MAA-Val-Cit-PAB-MMAE linker-drug coupled to cysteine thiols of reduced disulfide bonds (bridging linker); positions not given; DAR 3.95
On to B2, for which the results for the EC50 in experiment [1] and in experiment [2] were 0.0197 mg/L and 0.251 mg/L, respectively.
